Test [1] concerns the target T1, purified recombinant GST-tagged CYLD (human, UniProt Q9NQC7 1-956).
T1 sequence (looked up): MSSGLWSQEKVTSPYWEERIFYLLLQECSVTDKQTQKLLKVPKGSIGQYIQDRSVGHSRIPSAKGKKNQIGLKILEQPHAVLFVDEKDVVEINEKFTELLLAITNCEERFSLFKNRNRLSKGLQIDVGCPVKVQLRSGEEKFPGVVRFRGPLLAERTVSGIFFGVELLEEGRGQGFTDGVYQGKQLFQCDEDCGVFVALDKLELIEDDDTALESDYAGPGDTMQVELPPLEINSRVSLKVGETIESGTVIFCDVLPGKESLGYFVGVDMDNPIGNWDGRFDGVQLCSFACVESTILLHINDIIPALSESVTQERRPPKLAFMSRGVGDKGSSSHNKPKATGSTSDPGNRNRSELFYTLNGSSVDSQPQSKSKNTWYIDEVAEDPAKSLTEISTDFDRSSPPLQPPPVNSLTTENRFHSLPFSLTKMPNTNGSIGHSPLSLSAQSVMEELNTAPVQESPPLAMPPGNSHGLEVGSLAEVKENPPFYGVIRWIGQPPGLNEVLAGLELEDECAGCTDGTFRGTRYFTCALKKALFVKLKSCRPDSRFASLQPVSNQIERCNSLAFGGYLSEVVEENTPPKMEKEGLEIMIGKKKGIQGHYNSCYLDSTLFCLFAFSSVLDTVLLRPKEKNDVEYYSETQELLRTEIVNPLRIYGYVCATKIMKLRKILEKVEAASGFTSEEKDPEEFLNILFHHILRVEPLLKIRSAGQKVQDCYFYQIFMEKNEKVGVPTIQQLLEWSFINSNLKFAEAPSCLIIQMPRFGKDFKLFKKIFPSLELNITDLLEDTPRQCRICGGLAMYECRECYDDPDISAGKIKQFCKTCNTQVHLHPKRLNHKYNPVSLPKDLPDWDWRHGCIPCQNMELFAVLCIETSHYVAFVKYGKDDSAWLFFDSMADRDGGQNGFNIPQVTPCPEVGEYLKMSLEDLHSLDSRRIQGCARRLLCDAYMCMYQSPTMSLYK
The test can be described thus: pull-down.

The target in test [2] is T2, recombinant CYLD WT (GST tag cleaved) (human, UniProt Q9NQC7 1-956).
T2 sequence (looked up): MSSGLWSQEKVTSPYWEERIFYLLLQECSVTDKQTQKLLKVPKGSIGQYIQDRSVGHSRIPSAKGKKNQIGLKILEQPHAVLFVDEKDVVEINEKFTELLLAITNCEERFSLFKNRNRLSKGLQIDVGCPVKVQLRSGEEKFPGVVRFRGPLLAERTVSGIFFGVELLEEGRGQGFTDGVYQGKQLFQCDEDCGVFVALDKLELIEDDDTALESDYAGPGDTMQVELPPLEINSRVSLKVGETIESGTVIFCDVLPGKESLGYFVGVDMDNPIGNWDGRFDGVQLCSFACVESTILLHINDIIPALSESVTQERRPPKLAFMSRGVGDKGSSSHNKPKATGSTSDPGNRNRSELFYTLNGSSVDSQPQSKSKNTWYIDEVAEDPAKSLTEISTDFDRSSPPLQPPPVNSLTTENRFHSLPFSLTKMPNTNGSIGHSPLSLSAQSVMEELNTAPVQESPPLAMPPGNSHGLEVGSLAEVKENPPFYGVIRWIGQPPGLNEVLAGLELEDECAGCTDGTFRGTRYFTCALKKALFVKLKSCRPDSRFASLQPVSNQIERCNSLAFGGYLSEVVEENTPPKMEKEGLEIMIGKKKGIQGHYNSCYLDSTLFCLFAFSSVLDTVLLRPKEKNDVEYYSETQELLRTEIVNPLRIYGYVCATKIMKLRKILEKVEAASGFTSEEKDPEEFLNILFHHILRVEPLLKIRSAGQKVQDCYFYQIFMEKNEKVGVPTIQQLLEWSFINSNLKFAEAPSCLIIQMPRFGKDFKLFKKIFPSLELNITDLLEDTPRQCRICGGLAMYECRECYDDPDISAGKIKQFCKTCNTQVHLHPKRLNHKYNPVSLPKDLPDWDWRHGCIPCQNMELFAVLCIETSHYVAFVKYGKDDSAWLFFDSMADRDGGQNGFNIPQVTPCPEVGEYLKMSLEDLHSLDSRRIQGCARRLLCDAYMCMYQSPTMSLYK
The test can be described thus: pull-down.

B1: recombinant PARIS (prey of the reciprocal GST pull-down) (natural protein)
chain: not shown
As for B1, in test [1], the binding result was “binds”.

B2: purified recombinant GST-tagged PARIS (natural protein)
chain: not shown
Consider B2, for which the binding result in test [2] is given as “binds”.

These data come from publication PMC10938605 (Science Advances, 2022).
